Broadly, the Kd is the free concentration of one partner at which half of the binding sites on the other are occupied at equilibrium, for simple one-to-one binding. A word on the koff: it is a measure of how fast the partners let go of each other. The term kon denotes a measure of how fast the partners come together. The EC50 is the midpoint of the concentration-response curve. Lower therefore signals greater potency.

Where only a bound is given, the exact number is not on record here.

The target of test [1] is T1, FLRT3 (antigen of the binning assay of Table 2) (Homo sapiens (Human), UniProt Q9NZU0 29-528, limits assumed).
T1 construct: the whole entry for FLRT3 is named
T1 sequence: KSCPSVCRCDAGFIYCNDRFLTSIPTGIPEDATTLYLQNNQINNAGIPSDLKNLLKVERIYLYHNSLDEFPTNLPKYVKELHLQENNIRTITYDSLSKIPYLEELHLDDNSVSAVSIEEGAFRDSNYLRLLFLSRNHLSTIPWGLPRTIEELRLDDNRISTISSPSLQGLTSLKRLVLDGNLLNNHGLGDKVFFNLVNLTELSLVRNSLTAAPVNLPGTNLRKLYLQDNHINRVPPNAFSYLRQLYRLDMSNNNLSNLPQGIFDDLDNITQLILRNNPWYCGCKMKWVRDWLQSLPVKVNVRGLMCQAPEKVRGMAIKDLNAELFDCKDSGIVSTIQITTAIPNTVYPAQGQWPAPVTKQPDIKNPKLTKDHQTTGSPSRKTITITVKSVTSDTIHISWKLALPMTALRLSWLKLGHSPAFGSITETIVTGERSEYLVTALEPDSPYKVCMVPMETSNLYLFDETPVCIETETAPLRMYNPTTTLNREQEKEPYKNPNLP
Kind of test: antibody binning matrix (Table 2); competitor: 1H5.

Test [2] concerns the target T1, FLRT3 (antigen of the binning assay of …). In words: antibody binning matrix (Table 2); competitor: 2F7.
Test [3] has the same target. In words: antibody binning matrix (Table 2); competitor: 5C2.
Test [4] shares this target. Kind of test: antibody binning matrix (Table 2); competitor: 14B7.
For test [5] the target is unchanged. In words: antibody binning matrix (Table 2); competitor: 14D3.
For test [6], the target named is T2, FLRT3-His monomeric fusion protein (Homo sapiens (Human), UniProt Q9NZU0 29-528).
T2 construct: also called FLRT3 monomer; not shown: His tag
T2 sequence: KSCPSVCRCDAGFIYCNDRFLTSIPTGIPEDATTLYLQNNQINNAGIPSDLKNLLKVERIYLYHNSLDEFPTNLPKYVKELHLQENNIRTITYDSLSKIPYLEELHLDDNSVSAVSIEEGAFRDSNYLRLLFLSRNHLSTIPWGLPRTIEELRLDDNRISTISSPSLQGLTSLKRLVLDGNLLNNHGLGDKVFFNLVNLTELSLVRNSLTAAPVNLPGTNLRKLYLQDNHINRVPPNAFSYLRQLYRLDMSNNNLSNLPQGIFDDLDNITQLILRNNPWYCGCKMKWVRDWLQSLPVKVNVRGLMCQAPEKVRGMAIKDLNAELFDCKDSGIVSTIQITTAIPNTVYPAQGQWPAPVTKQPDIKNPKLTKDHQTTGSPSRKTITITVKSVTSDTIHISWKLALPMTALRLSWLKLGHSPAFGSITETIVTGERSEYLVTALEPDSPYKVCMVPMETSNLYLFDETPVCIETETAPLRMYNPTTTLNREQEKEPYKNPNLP
In words: kinetic affinity measurement with FLRT3-His monomer (Table 1).

Test [7] addresses T1, FLRT3 (antigen of the binning assay of …). In words: antibody binning matrix (Table 2); competitor: 15G11.
The target of test [8] is T3, human FLRT3 on cells (human, UniProt Q9NZU0 29-649).
T3 construct: also called hFLRT3
T3 sequence: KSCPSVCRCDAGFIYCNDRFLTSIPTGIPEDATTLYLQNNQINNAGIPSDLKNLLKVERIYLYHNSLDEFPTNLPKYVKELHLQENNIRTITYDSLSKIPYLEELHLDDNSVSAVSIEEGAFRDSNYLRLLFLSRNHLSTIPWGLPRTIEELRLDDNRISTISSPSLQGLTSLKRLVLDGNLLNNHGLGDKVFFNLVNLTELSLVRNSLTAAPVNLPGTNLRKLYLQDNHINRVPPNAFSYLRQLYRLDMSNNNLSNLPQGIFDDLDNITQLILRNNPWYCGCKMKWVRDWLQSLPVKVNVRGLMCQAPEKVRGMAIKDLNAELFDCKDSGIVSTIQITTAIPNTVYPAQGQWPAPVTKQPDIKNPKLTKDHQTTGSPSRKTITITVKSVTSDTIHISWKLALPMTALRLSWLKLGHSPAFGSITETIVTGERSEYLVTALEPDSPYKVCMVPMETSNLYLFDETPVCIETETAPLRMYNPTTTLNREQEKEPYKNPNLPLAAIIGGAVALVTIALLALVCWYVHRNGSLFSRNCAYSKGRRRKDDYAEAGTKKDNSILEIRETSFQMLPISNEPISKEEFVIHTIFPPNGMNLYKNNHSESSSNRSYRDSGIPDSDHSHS
Kind of test: flow cytometry on A549 cells (endogenous hFLRT3), normalised MFI, non-linear fit. On the procedure:
(§1) Increasing concentrations of FLRT3 antibodies bound to A549 cells that express endogenous hFLRT3 (FIG. 19). Binding curves for the top three antibodies were performed (FIG. 20A). MFI values of each group were normalized within that group- i.e. largest value 100% and smallest value 0% (FIG. 20A). EC50 values were calculated based on non-linear regression fit (FIG. 20B).
Background: A flow cytometer gives signals particle by particle.

Test [9] deals with T3, human FLRT3 on cells. The description is as above. Here is the method: as §1
This is another data set of the same source.

Test [10] concerns the target T3, human FLRT3 on cells. In words: flow cytometry on 293T cells transfected with human FLRT3, normalised MFI, non-linear fit. An excerpt:
(§2) MFI values of each group were normalized within that group- i.e. largest value 100% and smallest value 0%.

A further test has as its target T4, FLRT3-Fc (Homo sapiens (Human), UniProt Q9NZU0 29-528, biotin label in Example 8 (site not stated)).
T4 construct: also called FLRT3-Fc biotin; soluble FLRT3; not shown: Fc part
T4 sequence: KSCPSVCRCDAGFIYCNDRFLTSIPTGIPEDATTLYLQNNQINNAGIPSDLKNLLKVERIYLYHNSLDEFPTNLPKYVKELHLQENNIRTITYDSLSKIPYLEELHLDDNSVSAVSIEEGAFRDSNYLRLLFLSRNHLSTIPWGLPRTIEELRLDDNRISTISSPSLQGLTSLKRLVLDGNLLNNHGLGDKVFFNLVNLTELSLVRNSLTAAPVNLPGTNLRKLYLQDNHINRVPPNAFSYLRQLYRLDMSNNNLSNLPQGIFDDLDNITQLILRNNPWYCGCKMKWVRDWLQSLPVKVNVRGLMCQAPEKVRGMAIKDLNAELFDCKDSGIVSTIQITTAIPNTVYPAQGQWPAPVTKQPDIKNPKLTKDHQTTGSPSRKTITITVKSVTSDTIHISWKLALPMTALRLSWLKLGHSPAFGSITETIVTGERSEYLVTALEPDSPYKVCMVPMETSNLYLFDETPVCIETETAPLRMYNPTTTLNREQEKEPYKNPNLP
In words: competition ELISA: FLRT3-Fc biotin binding to coated Unc5B-Fc with titrated antibody. Here is the method: The FLRT3 antibodies were tested for their ability to block FLRT3-Unc5B interaction in ELISA assays (FIG. 14A). The binding of FLRT3-Fc biotin to Unc5B-Fc was confirmed in the absence of blocking mAbs (FIG. 14B).
In general terms: An ELISA detects its analyte on a solid surface through an enzyme-linked reagent.

For test [11], the target named is T3, human FLRT3 on cells. Kind of test: flow cytometry on 293T cells transfected with human FLRT3, normalised MFI, non-linear fit; Exp 1.
Excerpt: as §2

Test [12] addresses T3, human FLRT3 on cells. Kind of test: flow cytometry on 293T cells transfected with human FLRT3, normalised MFI, non-linear fit; Exp 2.
Excerpt: as §2

Test [13] deals with T1, FLRT3 (antigen of the binning assay of …). In words: antibody binning matrix (Table 2); row '1X Kinetic' (no first antibody), column antibody taken as binder.
Test [14] addresses T2, FLRT3-His monomeric fusion protein. In words: Octet, FLRT3 antibodies and FLRT3 monomer.
Test [15] has as its target T3, human FLRT3 on cells. In words: flow cytometry (AF647 MFI), FLRT3-293T-OKT3 cells, antibody titration.

B1: 14B7 (antibody, V domains shown)
VH: QVQLQQSGPELVKPGASVNISCKASGYAFGNSWMNWVKQRPGKGLEWIGWIYPGDGNANYNGKFKGKATLTADKSSSTAYMQLSSLTSEDSAVYFCARALYDYDGWFAYWGQGTLVTVSA
VL: DIQMNQSPSSLSASLGDTITIACRASQNIDIWLSWYQQKPGSIPKLLIYKASNLHTGVPSRFSGSGSGTDFTLTISSLQPEDIATYYCLQGQSFPFTFGSGTKLEIK
notes: Variable domains only; also called FLRT3 mAb 14B7; antibody 14B7
Regarding B1, the “binning response (no name or unit printed)” value in [1] is 0.671; in test [2] it was 0.771; in [3] it was 0.0014; in test [4], 0.0294; in test [5], 0.621; in test [7], 1.07. Also, the “binning response (no name or unit printed)” value in test [13] came out at 1.73. For the same molecule, in test [6], the Kd stood at 0.349 nM. The molecule also gave a koff in test [6] of 0.000138 s⁻¹. In [6], the kon was found to be 436000 M⁻¹ s⁻¹. Also, the EC50 in the test with human FLRT3 on cells [8] is under 1 nM; with human FLRT3 on cells [9], 0.29 nM; with human FLRT3 on cells [10], under 1.5 nM; with human FLRT3 on cells [11], 1.41 nM; in the test with human FLRT3 on cells [12] it was 1.35 nM. The “IC50 (read off the curve)” value in the test with FLRT3-Fc is about 2 µg/mL.

B2: 13B2 (antibody, V domains shown)
VH: EIQLQQSGTELVKPGASVKISCKASGYSFTGYNMNWMKQSHGMSLEWIGNINPYYGSTSYNQKFKGKATLTIDKSSSTAYMQLNSLTSEDSAVYYCARDRKNWEYFFDYWGQGTTLTVSS
VL: ETTVTQSPASLSMAIGEKVTIRCITSTDIDDDMNWYQQKPGKPPKLLISEGNTLRPGVPSRFSSSGYGTDFVFTIENMLSEDVADYYCLQSDNLPYTFGGGTKLEIK
notes: Variable domains only
B2: the binding result in [14] is given as “no binding”; in the test with human FLRT3 on cells [15], “no binding (tested: about 300 nM)”.
